Ends that are not written are not given here.

Experiment [1] has as its target T1, N1-CD33-His6 (the ectodomain of human CD33 fused to the N1 domain of the g3p filamentous phage M13) (filamentous phage M13; human, UniProt P20138 18-259).
T1 construct: extracellular domain; not shown: N1 domain of g3p of filamentous phage M13
The experiment can be described thus: QC ELISA of the chimeric human/mouse IgG1 antibody on immobilized control protein; signal over background. (ELISA stands for enzyme-linked immunosorbent assay.)

For a further experiment, the target named is T2, human Ambra-1 (human, UniProt Q9C0C7 1-1298).
T2 construct: the protein stood in tissue sections (immunohistochemistry)
T2 sequence: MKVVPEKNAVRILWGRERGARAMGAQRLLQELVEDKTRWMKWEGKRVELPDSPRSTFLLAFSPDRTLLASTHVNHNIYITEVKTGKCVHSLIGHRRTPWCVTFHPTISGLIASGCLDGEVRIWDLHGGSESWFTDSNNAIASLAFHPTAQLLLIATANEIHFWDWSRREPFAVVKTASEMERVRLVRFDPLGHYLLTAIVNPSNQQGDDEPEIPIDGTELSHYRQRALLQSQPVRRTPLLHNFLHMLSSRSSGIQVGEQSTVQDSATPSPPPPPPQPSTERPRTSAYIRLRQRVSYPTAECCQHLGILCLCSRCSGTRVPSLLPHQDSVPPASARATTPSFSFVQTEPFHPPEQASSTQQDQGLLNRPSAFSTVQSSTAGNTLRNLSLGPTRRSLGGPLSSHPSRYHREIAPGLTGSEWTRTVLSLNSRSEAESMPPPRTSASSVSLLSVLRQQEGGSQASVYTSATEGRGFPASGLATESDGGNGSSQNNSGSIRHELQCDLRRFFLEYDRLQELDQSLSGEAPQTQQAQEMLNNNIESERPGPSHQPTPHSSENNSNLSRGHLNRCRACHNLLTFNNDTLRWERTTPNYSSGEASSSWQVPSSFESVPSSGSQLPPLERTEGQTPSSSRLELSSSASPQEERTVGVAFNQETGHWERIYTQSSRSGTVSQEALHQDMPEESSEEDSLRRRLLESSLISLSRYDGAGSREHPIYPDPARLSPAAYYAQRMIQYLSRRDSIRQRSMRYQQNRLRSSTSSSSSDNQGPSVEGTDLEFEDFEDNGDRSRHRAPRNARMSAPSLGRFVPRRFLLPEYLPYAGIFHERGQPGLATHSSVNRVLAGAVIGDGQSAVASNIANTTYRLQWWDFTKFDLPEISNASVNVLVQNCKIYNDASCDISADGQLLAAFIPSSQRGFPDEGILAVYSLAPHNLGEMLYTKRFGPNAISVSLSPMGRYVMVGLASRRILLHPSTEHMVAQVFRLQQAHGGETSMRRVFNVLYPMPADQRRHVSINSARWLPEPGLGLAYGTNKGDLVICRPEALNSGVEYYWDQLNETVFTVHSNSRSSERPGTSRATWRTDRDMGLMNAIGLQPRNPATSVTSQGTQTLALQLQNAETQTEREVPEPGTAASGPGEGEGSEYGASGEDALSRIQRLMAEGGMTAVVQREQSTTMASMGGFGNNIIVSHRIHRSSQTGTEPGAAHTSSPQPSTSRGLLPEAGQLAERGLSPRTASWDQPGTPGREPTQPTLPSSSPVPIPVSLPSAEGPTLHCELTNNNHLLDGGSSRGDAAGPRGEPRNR
The experiment can be described thus: automated immunohistochemistry (Ventana Benchmark XT), chimeric mouse IgG1 format.

The target of experiment [2] is T1, N1-CD33-His6 (the ectodomain of human …). Nature of the experiment: QC ELISA of the chimeric human/mouse IgG1 antibody on immobilized control protein; signal over background. This is another data set of the same source.
Experiment [3] addresses T3, Ambra-1 peptide (synthesized peptide to which anti-Ambra-1 antibodies were raised) (human, not fully specified).
T3 construct: Tested in ELISA in native and denatured form; also called Ambra-1 antigen
T3 peptide: CGGSSRGDAAGPRGEPRNR
Nature of the experiment: QC ELISA of the chimeric human/mouse IgG1 antibody on immobilized Ambra-1 peptide conjugates Amb1-TRF and Amb1-BSA; signal over background.

Experiment [4] addresses T1, N1-CD33-His6 (the ectodomain of human …). The experiment can be described thus: QC ELISA, purified Fab on immobilized control protein; signal (x-fold) over background.

T1 sequence (P20138 18-259, tags left off): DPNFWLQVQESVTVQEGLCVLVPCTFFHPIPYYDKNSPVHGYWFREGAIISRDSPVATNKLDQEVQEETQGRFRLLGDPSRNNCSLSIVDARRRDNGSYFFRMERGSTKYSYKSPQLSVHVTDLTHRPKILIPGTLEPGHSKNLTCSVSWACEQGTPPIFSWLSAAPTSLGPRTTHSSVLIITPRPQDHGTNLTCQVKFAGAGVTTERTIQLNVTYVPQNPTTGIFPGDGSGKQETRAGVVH

B1: AbD33047 full length chimeric antibody against human Loricrin with an IgG1 mouse Fc region (antibody, V domains shown)
VH: QVQLVQSGAEVKKPGASVKVSCKASGYTFNDYYIHWVRQAPGQGLEWMGVISPNSGKTNYAQKFQGRVTMTRDTSISTAYMELSRLRSEDTAVYYCARDLYPDSSAFDIWGQGTLVTVSS
VL: DIELTQPPSVSVSPGQTASITCSGDNLGDKYAHWYQQKPGQAPVLVIYDDNERPSGIPERFSGSNSGNTATLTISGTQAEDEADYYCQSYDSGNRVFGGGTKLTVLG
notes: also called recombinant monoclonal antibody AbD33047; HuCAL antibody AbD33047
For B1, the binding result in experiment [1] is recorded as “no binding”.

B2: AbD33473 full length chimeric antibody against human Ambra-1 with an IgG1 mouse Fc region (antibody, V domains shown)
VH: EVQLVQSGAEVKKPGESLKISCKGSGYSFSSYWIHWVRQMPGKGLEWMGTIFPSRSYTTYSPSFQGQVTISADKSISTAYLQWSSLKASDTAMYYCARDTPSTALKSPFDYWGQGTLVTVSS
VL: DIVLTQPPSVSGAPGQRVTISCSGSSSNIGYNYVYWYQQLPGTAPKLLIYENNKRPSGVPDRFSGSKSGTSASLAITGLQAEDEADYYCSSWDSHSNSYVFGGGTKLTVLG
notes: also called recombinant monoclonal antibody AbD33473; HuCAL antibody AbD33473
On to B2, for which the binding result with human Ambra-1 is listed as “binds”; in experiment [2] it was “no binding”; in experiment [3] it was “binds”.

B3: HuCAL recombinant monoclonal antibody fragment against human Ambra-1, AbD33473.1, bivalent Fab (Fab-A-FH) (Fab)
heavy: EVQLVQSGAEVKKPGESLKISCKGSGYSFSSYWIHWVRQMPGKGLEWMGTIFPSRSYTTYSPSFQGQVTISADKSISTAYLQWSSLKASDTAMYYCARDTPSTALKSPFDYWGQGTLVTVSSASTKGPSVFPLAPSSKSTSGGTAALGCLVKDYFPEPVTVSWNSGALTSGVHTFPAVLQSSGLYSLSSVVTVPSSSLGTQTYICNVNHKPSNTKVDKKVEPKSRTPEMPVLENRAAQGDITAPGGARRLTGDQTAALRDSLSDKPAKNIILLIGDGMGDSEITAARNYAEGAGGFFKGIDALPLTGQYTHYALNKKTGKPDYVTDSAASATAWSTGVKTYNGALGVDIHEKDHPTILEMAKAAGLATGNVSTAELQDATPAALVAHVTSRKCYGPSATSEKCPGNALEKGGKGSITEQLLNARADVTLGGGAKTFAETATAGEWQGKTLREQAQARGYQLVSDAASLNSVTEANQQKPLLGLFADGNMPVRWLGPKATYHGNIDKPAVTCTPNPQRNDSVPTLAQMTDKAIELLSKNEKGFFLQVEGASIDKQDHAANPCGQIGETVDLDEAVQRALEFAKKEGNTLVIVTADHAHASQIVAPDTKAPGLTQALNTKDGAVMVMSYGNSEEDSQEHTGSQLRIAAYGPHAANVVGLTDQTDLFYTMKAALGLKDYKDDDDKHHHHHH
light: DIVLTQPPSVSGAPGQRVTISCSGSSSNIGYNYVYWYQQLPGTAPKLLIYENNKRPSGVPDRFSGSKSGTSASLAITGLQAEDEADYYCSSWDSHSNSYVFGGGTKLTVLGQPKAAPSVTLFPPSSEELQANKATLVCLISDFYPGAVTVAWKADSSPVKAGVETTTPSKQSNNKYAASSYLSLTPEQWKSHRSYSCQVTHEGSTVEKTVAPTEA
notes: domain: alkaline phosphatase dimerization domain
For B3, the binding result in experiment [4] was “no binding”.

Source of the values: patent US20210396758A1 (AMLO BIOSCIENCES, published 2021).
